US20260085338

Columns and labels:
[1] = tested on: 67PfluR64PP RNA polymerase

Substance: 67PfluR64PP lysozyme
- reduction of msfGFP output upon lysozyme induction (P. putida, 4 mM Rha) [1]: 67PfluR64PP (-51%)
- reduction of leaky msfGFP expression caused by the phi15 RNAP (P. putida, 4 mM Rha) (phi15 RNA polymerase): The 67PfluR64PP lysozyme reduced the leaky expression by 58%

Substance: phi15 lysozyme (wild-type)
- reduction of msfGFP output upon lysozyme induction (P. putida, 4 mM Rha) (phi15 RNA polymerase): The phi15 lysozyme caused only a -30% reduction of the msfGFP output

Substance: Pf-10 lysozyme
- reduction of msfGFP output upon lysozyme induction (P. putida, 4 mM Rha) (Pf-10 RNA polymerase): Pf-10 (-80%)

Substance: PPPL-1 lysozyme
- reduction of msfGFP output upon lysozyme induction (P. putida, 4 mM Rha) (PPPL-1 RNA polymerase): PPPL-1 (-39%)

Substance: phi15 lysozyme (G3RQ)
- dynamic range of the system (fold induction), lysozyme integrated in PP4305, P. putida SEM11 (phi15 RNA polymerase): the dynamic range of the system increased from 33 to 107- and 70-fold, respectively
- dynamic range of the system (fold induction), lysozyme integrated in PP5388, P. putida SEM11 (phi15 RNA polymerase): the dynamic range of the system increased from 33 to 107- and 70-fold, respectively
